These results are taken from US20110318757A1 (MAB FACTORY, published 2011).

Where a chain is given by its changes, count along the chain named.

First the molecules themselves.
T1: MUC1 peptide (15 aa+cystein, APDTRPAPGSTAPPAC) (human)
T1 construct: If the listing entry has only 15 residues, a C-terminal Cys must be added; Immobilized on the SPR chip; also called synthetic MUC1 peptide
T1 peptide: APDTRPAPGSTAPPAC

T2: 32-mer MUC1 peptide (human)
T2 construct: also called MUC1 peptide antigen (32mer cys); MUC1 peptide (32 mer cys)
T2 peptide: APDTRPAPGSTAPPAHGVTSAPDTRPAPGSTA

B1: HT186-B7 scFv (scFv)
scFv: QMQLVQSGAEVKKPGASVKVSCKASGYTFTGHYMHWVRQAPGQGLEWMGWIDPVTGGTKYAQNFQGWVTMTRDTSIRTAYMELSRLRSDDTAMYYCAREVTGDRGQFDKWGQGTLVTVASASTKGPSVKLEEGEFSEARVQSVLTQPPSVSVAPGKTARITCGGNNIGSKSVHWYQQKPGQAPALVIYYGSYRPSGIPERFSGSNYGNTATLTIRRVEAGDEADYYCQVWDSSSDWVFGGGTKLTVLGQPKAAPSVTLFPPS
notes: scFv as VH-truncated CH1-linker-VL-truncated CL, made in the E. coli periplasm and purified by its His-tag; not shown: C-terminal His-tag used for purification and detection
B2: HT186-D11 scFv (scFv)
scFv: B1 scFv with G8E, V11L, T28S, M81L, A121S, Y192N, Y206S, R215S, P261S
notes: as for B1
B3: HT186-G2 scFv (scFv)
scFv: RMQLVQSGAEVKKPGASVKLSCKASGYTFAGHYMHWVRQAPGRGLEWMGWIDPVTGGTKYAQNFQGWVTMTRDTSIRTAYMELSRLRSDDTAMYYCAREVTGDRGQFDKWGQGTLVTVASASTKGPSVKLEEGKFLEAHVQSVLTQPPSVSVAPGKTARITCGGNNIGSKSVHWYQQKPGQAPVLVIYYGSDRSSGIPERFSGSNSGNTATLTISRVEAGDEADYYCQVWDSSSDWVFGGGTKLTVLGQPKAAPSVTLFPPS
notes: as for B1
B4: R764-B7 (HT186-B7 IgG) (antibody, V domains shown)
VH: QMQLVQSGAEVKKPGASVKVSCKASGYTFTGHYMHWVRQAPGQGLEWMGWIDPVTGGTKYAQNFQGWVTMTRDTSIRTAYMELSRLRSDDTAMYYCAREVTGDRGQFDKWGQGTLVTVAS
VL: QSVLTQPPSVSVAPGKTARITCGGNNIGSKSVHWYQQKPGQAPALVIYYGSYRPSGIPERFSGSNYGNTATLTIRRVEAGDEADYYCQVWDSSSDWVFGGGTKLTVLG
notes: Human IgG1, lambda, produced in YB2/0 cells
B5: R764-D11 (HT186-D11 IgG) (antibody, V domains shown)
VH: B4 VH with G8E, V11L, T28S, M81L
VL: B4 VL with Y52N, Y66S, R75S
notes: Human IgG1, lambda, produced in YB2/0 cells; also called R764 HT186-D11
B6: HT220-M-D1 scFv (scFv)
scFv: QMLLVQSGAEAKKPGASVKVSCKASGYTFTGHYMHWVRQAPGQGLEWMGWIDPVTGGTKYAQNFQGWVTMTRDTSIRTAYMELSRLRPDDTAMYYCAREVTGDRGQFDKWGQGTLVTVASASTKGPSVKLEEGEFSEARVQSVLTQPPSVSVVPGKTARIICGGNNIGSKSVHWYQQKPGQAPVLVIYNNSDRPSGIPERFSGSNSGNMATLTISRVEAGDESDYYCQVWDSSSDWVFGGGTRLTILGQSKAAPSVTLFPPS
notes: as for B1
B7: HT200-3A-C1 scFv (scFv)
scFv: QMQLVQSGAEVKKPGASVKVSCKASGYTFTGHYMHWVRQAPGQGLEWMGWIDPVTGGTKYAQNFQGWVTMTRDTSIRTAYMELSRLRSDDTAMYYCAREVTGDRGQFDKWGQGTLVTVASASTKGPSAKLEEGEFSEARVQSVLTQPPSVSMAPGETARITCGGNNIGSKSVHWYQQKPGQAPVLVIYNDSDRPSGIPERFSGSNSGKTATLTISRVEAGDEADYYCQVWDSSIDWVFGGGTKLTVLGQPKAAPSVTLFPPS
notes: as for B1
B8: HT220-M-G8 scFv (scFv)
scFv: B1 scFv with K12M, T28S, Q39H, G57S, R77S, A184V, Y192D, Y206T, T209M, R215S
notes: as for B1

The first assay concerns the target T1, MUC1 peptide (15 aa+cystein, …). The assay is described as follows: SPR, scFv over immobilized MUC1 peptide, Chip 2 (14 RU).
By Kd is commonly meant the concentration at which binding is half-saturated. As a reminder, the koff is the first-order rate constant of dissociation. A low value points to a long-lived complex. A word on the kon: it is the second-order rate constant of association. In turn, B1 yielded a Ka of 6.3e+08 M⁻¹, a Kd of 1.6 nM, a koff of 0.00014 s⁻¹ and a kon of 90000 M⁻¹ s⁻¹.
For B2, the Ka was 1.5e+09 M⁻¹.
For the molecule B3, the Ka stood at 6.6e+08 M⁻¹, binding was put at a Kd of 1.5 nM, the koff was 0.00011 s⁻¹ and the kon was found to be 73000 M⁻¹ s⁻¹.

A further assay concerns the target T2, 32-mer MUC1 peptide. The assay is described as follows: titration ELISA, MUC1 peptide (32mer Cys) 50 ng/well, IgG diluted 1:3.16 from 100 µg/mL, detection goat anti-human IgG (Fc) HRP, TMB; mean of three plates, BSA value subtracted; A450-A620. On the procedure: 3× Nunc Maxisorp plates coated with 50 ng/well MUC1 peptide antigen (32mer cys, sequence: […]) [0227] Control plate was coated with 100 ng/well BSA [0228] Blocking solution: 2% skim milk powder in PBS-T (0.1% Tween), 1 h, RT [0229] IgG samples were diluted to a final concentration of 100 μg/ml with blocking solution [0230] samples were sequentially diluted 1:3.16 [0231] detection: goat anti-human IgG (Fc spec) HRP conjugate (Sigma, 1:39000), 1 h, RT [0232] Development: TMB substrate, reaction stopped with sulfuric acid after 10 minutes. [0233] A450-A620 measured in a Tecan Sunrise Reader [0234] […] Mean value and standard deviation of three plates (MUC1) calculated [0236] BSA value (negative control) subtracted from mean value [0237] Plotting: [0238]
B4: the “EC50 (read off the curve)” value was about 0.1 µg/mL.
The same measure, in the same setting: in the case of B5 it was about 0.1 µg/mL.

The target in the next assay is T2, 32-mer MUC1 peptide. The assay is described as follows: ELISA, 32-mer MUC1 peptide immobilized in microtitre wells, IgG about 0.03 to 8000 ng/well, A450-A620 (preliminary results according to the legend). How it is done: (§1) This analysis was done using the ELISA technique wherein the 32-mer MUC1 peptide is immobilized in the wells of a microtitre plate, and wherein the anti-MUC1 antibodies are added later in different concentrations.
B4: the “EC50 (read off the curve)” value is about 10 ng/well.
Still for that read-out and setting: in the case of B5 it was about 10 ng/well.

Another assay concerns the target T1, MUC1 peptide (15 aa+cystein, …). The assay is described as follows: SPR, scFv 2-200 nM over immobilized MUC1 peptide, Chip 1 (47 RU). On the technique in general: In SPR one partner is held on a chip, and binding of the other changes the refractive index at the surface.
B6 registered a Ka of 2.8e+08 M⁻¹, a Kd of 3.7 nM, a koff of 0.00011 s⁻¹ and a kon of 29000 M⁻¹ s⁻¹.
Taken in the same sequence, the figures for B1 were 7.5e+08 M⁻¹, 1.3 nM, 4.6e-05 s⁻¹ and 35000 M⁻¹ s⁻¹.
Consider B2, for which the Ka amounted to 1.8e+09 M⁻¹, the Kd was found to be 0.57 nM, the koff came out at 2.1e-05 s⁻¹ and the kon turned out to be 38000 M⁻¹ s⁻¹.
The like results for B3 were, in that order, 1e+09 M⁻¹, 1 nM, 7.2e-05 s⁻¹ and 72000 M⁻¹ s⁻¹.
The like results for B7 were, in that order, 4.8e+08 M⁻¹, 2.1 nM, 0.0001 s⁻¹ and 49000 M⁻¹ s⁻¹.
The like results for B8 were, in that order, 2.3e+08 M⁻¹, 4.4 nM, 0.00022 s⁻¹ and 50000 M⁻¹ s⁻¹.

The next assay has as its target T2, 32-mer MUC1 peptide. The assay is described as follows: ELISA, IgG on coated 32-mer MUC1 peptide. How it is done:
as §1
For orientation: An ELISA detects its analyte on a solid surface through an enzyme-linked reagent.
Take B4: the “fold stronger binding than R764-G2 and R764-hHMFG1” value came to 10 times.
Still for that read-out and setting: to B5 belongs 10 times.

The target in the next assay is T1, MUC1 peptide (15 aa+cystein, …). The assay is described as follows: SPR, scFv over immobilized MUC1 peptide, Chip 2 (14 RU); Chip 2 (14 RU MUC1 peptide).
The molecule B2 displayed a Kd of 0.65 nM.
